The values below come from patent publication US9175313B2, “Three-dimensional structure of isoprene synthase and its use thereof for generating variants” (Danisco US Inc., priority 2009, dated 2015).

Positions count from the first letter of the chain named. Names and notes keep the numbering of the source.

A short description of data set [1]: Specific activity measurement of purified isoprene synthase variants (4 mM DMAPP, 30 C, GC-MS headspace). The class given is biochemical. As to conditions: 50 mM NaCl, 50 mM Tris pH = 8, 30° C.; for Variant S.A./WT S.A.: ratio to WT. On the procedure: 1. Initial Purification—Resuspend the pellet in 3 ml of fresh lysis buffer. Break cells by passing them through the French Press using the small cylinder. Centrifuge samples for 1 hour at 30,000×G and collect the supernatant. Retain pellet in order to test for presence of insoluble protein. Pre equilibrate 0.5 mL Ni Sepharose 6 Fast Flow resin (Amersham) in a 20 ml disposable column with 10 mL of Ni wash buffer. Add protein to column and shake for 60 min at 4 C to bind protein. Elute protein with 2.5 mL Ni elution buffer.
2. Buffer Exchange—Equilibrate a PD-10 column (GE Healthcare) with 25 mL of PD-10 buffer. Load protein on to column and elute with 3.5 mL of PD-10 buffer.
10 uL of purified enzyme was incubated with 4 mM DMAPP, 50 mM MgCl2 in a buffer containing 50 mM Tris and 50 mM NaCl (pH=8) to a final volume of 100 uL for 15 min. at 30 C in gas tight 2 mL vials. Reactions were terminated with the addition of 100 uL of […] EDTA, pH=8. Samples were analyzed by GC-MS to determine the concentration of isoprene in the headspace of the vials. All specific activity measurements were performed in triplicate.
Protein concentration was determined by measuring the absorbance of each protein solution at 280 nm on a Helwlett Pachard 8453 UV-Vis spectrophotometer and converting the absorbance to protein concentration using the extinction coefficient as determined on the Expasy website (Gasteiger E., Hoogland C., Gattiker A., Duvaud S., Wilkins M. R., Appel R. D., Bairoch A.; Protein Identification and Analysis Tools on the ExPASy Server; (In) John M. Walker (ed): The Proteomics Protocols Handbook, Humana Press (2005). pp. 571-607). The protein concentrations of isoprene synthase variants assayed for KM and kcat determination were verified by comparative gel electrophoresis of a dilution series of each protein (FIG. 61).

Data set [2] is described as follows: DMAPP assay of site evaluation library (SEL) lysates with ELISA protein quantitation: specific activity ranked as performance index. It counts as biochemical. The conditions noted are these: primary SEL screen; activity on DMAPP per unit weight relative to the parental molecule (parent = 1). On the procedure:
1. Prepared Patch Plates from Glycerol Stock Plates. Using a V&S 96 pin Replication Tool, cultures were patched onto a LB Agar 35 CMP/50 Kan large patch plates from overnight glycerol stock plates. Plates were incubated at 30° C. overnight for 20 to 24 hr. Cultures can be stored at 4° C. for up to a week.
2. Prepared Overnight Growth Plates. 500 mL of LB 35 CMP/50 Kan media were prepared. 300 μL/well of LB 35 CMP/50 Kan media were dispensed into deep 96 well plates (VWR). Using a V&S Replication Tool, the patch inoculum was transferred into deep 96 well plate by touching the tool pins to respective patch and using a circular motion to coat the pins with inoculum. The media was inoculated by dipping the tool then shaking the pin within the well. The overnight growth plates were sealed using a Breathe-Easier Sealing Membrane (Diversified Biotech). The plates were incubated in a Vertiga Shaking Incubator at 30° C. with shaking at 800 rpm overnight for 16 to 18 hr.
3. Prepared Day Growth Plate. Deep 96 well plates were prepared by dispensing 588 μL/well of LB 35 CMP/50 Kan media. Overnight growth plates were removed from the incubator. Overnight cultures were diluted 50-fold and 12 μL of overnight culture were transferred to day growth plates containing 588 μL/well of LB media containing antiobiotics. Overnight growth plates were sealed with new Breathe-Easier Sealing Membranes. Cultures were incubated at 30° C. and 800 rpm for 2.5 hr. Frozen 12 mM IPTG (Sigma) vials were removed from −20° C. and placed in a hood to thaw.
4. OD600 Plate Read of Overnight, Induction, and Harvest. 150 μL 1×PBS were dispensed into 96 well Costar Read Plates (#9017). 50 μL of culture samples were transferred to Read Plates. The OD600 reading was recorded using a Spectramax Plate Reader (Molecular Devices).
5. Induction. Electronic multi-channel pipettors were prepared to dispense 4×20 μL/well of IPTG (if 4× replicates). The multi-dispense option in the electronic pipettor was adjusted if more replicates was necessary. Thawed 12 mM IPTG was poured into 50 mL or 100 mL sterile reservoirs. 20 μL/well of IPTG into each 600 μL/well culture. Overnight growth plates were resealed. Cultures were incubated at 30° C. and 800 rpm for 4 hr. OD600 readings of plates were recorded according instructions above.
6. Harvest. 400 μL of induced culture were transferred to 800 μL Grenier storage plates. Plates were centrifuged at 3300 rpm for 20 min at 2° to 8° C. in a low speed benchtop centrifuge. Supernatants were discarded, pellets should stay in the conical bottom well. Residual supernatants were slapped out onto a paper towel on the benchtop. Plates were sealed with an aluminum foil membrane (Beckman-Coulter). Plates were covered with a plastic plate lid if available. Storage plates were labeled accordingly and stored frozen at −80° C.
Plates containing induced cell pellets were removed from the −80° C. freezer and allowed to thaw on the benchtop for 30 minutes prior to lysis. 200 μl of lysis buffer (50 mM Tris pH 8, 25 mM MgCl2, 74 μg/ml DNase I, 250 U/ml lysozyme, 0.1% Tween 20, 0.5 mM PMSF) was added to each pellet, and plates were incubated on an Eppendorf Thermomixer at 25° C. for 30 minutes at 1200 rpm. After lysis, plates were centrifuged at 3450 rpm for 15 minutes at 4° C. Supernatants were then removed and diluted 10-fold prior to DMAPP assay. 80 μl of the diluted supernatant was added to 20 μl of the DMAPP working stock (20 mM DMAPP in 0.1 M Phosphate Buffer pH 8.2, DMAPP triammonium salt, Cayman chemicals) in a Zinsser glass block. Blocks were then sealed with aluminum sealing membranes, and incubated in Thermomixers at 25° C. for 30 minutes at 450 rpm. Reactions were stopped by incubating blocks on Thermomixers at 70° C. for 12 minutes at 450 rpm. GC-MS was then used for headspace measurements to calculate the amount of isoprene produced by each lysates.
Headspace Assay. […]

B1: NSP: P. alba MEA A453N G491S L494P (+) TEV; pDW106, SEQ ID NO: 79 (protein)
chain: MEARRSANYEPNSWDYDYLLSSDTDESIEVYKDKAKKLEAEVRREINNEKAEFLTLLELIDNVQRLGLGYRFESDIRGALDRFVSSGGFDAVTKTSLHGTALSFRLLRQHGFEVSQEAFSGFKDQNGNFLENLKEDIKAILSLYEASFLALEGENILDEAKVFAISHLKELSEEKIGKELAEQVNHALELPLHRRTQRLEAVWSIEAYRKKEDANQVLLELAILDYNMIQSVYQRDLRETSRWWRRVGLATKLHFARDRLIESFYWAVGVAFEPQYSDCRNSVAKMFSFVTIIDDIYDVYGTLDELELFTDAVERWDVNAINDLPDYMKLCFLALYNTINEIAYDNLKDKGENILPYLTKAWADLCNAFLQEAKWLYNKSTPTFDDYFGNAWKSSSGPLQLVFAYFAVVQNIKKEEIENLQKYHDTISRPSHIFRLCNDLASASAEIARGETNNSVSCYMRTKGISEELATESVMNLIDETWKKMNKEKLSGSPFAKPFVETAINLARQSHCTYHNGDAHTSPDELTRKRVLSVITEPILPFERENLYFQGLEHHHHHH
modifications: TEV site
With B1, in data set [1], the S.A. is 465 ± 2 nmol/mg/min and the “Variant S.A./WT S.A.” value turned out to be 1.0.

B2: NSPC: P. alba MEA A453N G491S L494P T536C (+) TEV; pDW109, SEQ ID NO: 85 (protein)
chain: B1 chain with T536C
modifications: TEV site
For the molecule B2, in data set [1], the S.A. is recorded as 502 ± 6 nmol/mg/min and the “Variant S.A./WT S.A.” value was determined as 1.1.

B3: NSC: P. alba MEA A453N G491S T536C (+) TEV; pDW107, SEQ ID NO: 81 (protein)
chain: B1 chain with P494L, T536C
modifications: TEV site
For B3, in data set [1], the S.A. was 390 ± 20 nmol/mg/min and the “Variant S.A./WT S.A.” value is recorded as 0.8.

B4: D345R: P. alba IspS variant (protein, UniProt Q50L36 38-595, looked up, variant D345R)
Isoprene synthase, …: CSVSTENVSFTETETEARRSANYEPNSWDYDYLLSSDTDESIEVYKDKAKKLEAEVRREINNEKAEFLTLLELIDNVQRLGLGYRFESDIRGALDRFVSSGGFDAVTKTSLHGTALSFRLLRQHGFEVSQEAFSGFKDQNGNFLENLKEDIKAILSLYEASFLALEGENILDEAKVFAISHLKELSEEKIGKELAEQVNHALELPLHRRTQRLEAVWSIEAYRKKEDANQVLLELAILDYNMIQSVYQRDLRETSRWWRRVGLATKLHFARDRLIESFYWAVGVAFEPQYSDCRNSVAKMFSFVTIIRDIYDVYGTLDELELFTDAVERWDVNAINDLPDYMKLCFLALYNTINEIAYDNLKDKGENILPYLTKAWADLCNAFLQEAKWLYNKSTPTFDDYFGNAWKSSSGPLQLVFAYFAVVQNIKKEEIENLQKYHDTISRPSHIFRLCNDLASASAEIARGETANSVSCYMRTKGISEELATESVMNLIDETWKKMNKEKLGGSLFAKPFVETAINLARQSHCTYHNGDAHTSPDELTRKRVLSVITEPILPFER
For B4, the performance index in data set [2] is 0.40.

B5: L469L: SEL member with the wild type residue at site 469 (wild type codon substituted) (protein, UniProt Q50L36 38-595, looked up)
Isoprene synthase, …: B4 Isoprene synthase, … with R308D
In the case of B5, the performance index in data set [2] was 0.96.

B6: D345G: P. alba IspS variant (protein, UniProt Q50L36 38-595, looked up, variant D345G)
Isoprene synthase, …: B4 Isoprene synthase, … with R308G
With B6, the performance index in data set [2] is 0.55.

B7: H515H: SEL member with the wild type residue at site 515 (wild type codon substituted) (protein, UniProt Q50L36 38-595, looked up)
Isoprene synthase, …: B4 Isoprene synthase, … with R308D
B7: the performance index in data set [2] is given as 0.81.

B8: D345Y: P. alba IspS variant (protein, UniProt Q50L36 38-595, looked up, variant D345Y)
Isoprene synthase, …: B4 Isoprene synthase, … with R308Y
As to B8, in data set [2], the performance index is given as 0.84.

B9: D345L: P. alba IspS variant (protein, UniProt Q50L36 38-595, looked up, variant D345L)
Isoprene synthase, …: B4 Isoprene synthase, … with R308L
For the molecule B9, in data set [2], the performance index was 0.65.

B10: D345N: P. alba IspS variant (protein, UniProt Q50L36 38-595, looked up, variant D345N)
Isoprene synthase, …: B4 Isoprene synthase, … with R308N
For the molecule B10, the performance index in data set [2] stood at 0.58.

B11: D345Q: P. alba IspS variant (protein, UniProt Q50L36 38-595, looked up, variant D345Q)
Isoprene synthase, …: B4 Isoprene synthase, … with R308Q
Turning to B11, in data set [2], the performance index is reported as 0.56.

B12: D345I: P. alba IspS variant (protein, UniProt Q50L36 38-595, looked up, variant D345I)
Isoprene synthase, …: B4 Isoprene synthase, … with R308I
B12: in data set [2], the performance index is 0.73.

B13: D345T: P. alba IspS variant (protein, UniProt Q50L36 38-595, looked up, variant D345T)
Isoprene synthase, …: B4 Isoprene synthase, … with R308T
For the molecule B13, the performance index in data set [2] worked out at 0.56.

B14: D345P: P. alba IspS variant (protein, UniProt Q50L36 38-595, looked up, variant D345P)
Isoprene synthase, …: B4 Isoprene synthase, … with R308P
For the molecule B14, the performance index in data set [2] was 0.35.

B15: D345K: P. alba IspS variant (protein, UniProt Q50L36 38-595, looked up, variant D345K)
Isoprene synthase, …: B4 Isoprene synthase, … with R308K
Turning to B15, in data set [2], the performance index came out at 0.69.

B16: D345E: P. alba IspS variant (protein, UniProt Q50L36 38-595, looked up, variant D345E)
Isoprene synthase, …: B4 Isoprene synthase, … with R308E
In the case of B16, in data set [2], the performance index worked out at 0.61.

B17: D345V: P. alba IspS variant (protein, UniProt Q50L36 38-595, looked up, variant D345V)
Isoprene synthase, …: B4 Isoprene synthase, … with R308V
For B17, the performance index in data set [2] came to 0.51.

B18: D345A: P. alba IspS variant (protein, UniProt Q50L36 38-595, looked up, variant D345A)
Isoprene synthase, …: B4 Isoprene synthase, … with R308A
On to B18, for which the performance index in data set [2] was 0.50.
